Values of other authors, collected in publication PMC7590224.
pKd: −log10 of the molar value.

Test system: hLarp7 xRRM domain (human)
Conditions: No direct binding assays in this paper (only in vivo E. coli suppressor tRNA reporter assays, left out); conditions of the cited Kd values not given

Substance	pKd
7SK RNA stem-loop 4 (SL4)	6.89
7SK SL4 U311A	7.29
